According to patent US10689429B2, “Double-acylated GLP-1 compounds” (Novo Nordisk A/S, priority 2014, dated 2020):
*1 amine or outer side, *2 acyl side, *3 side chain or, on linkers, in order; H or OH if unused. Where no end group is shown, it is not given here. Side-chain parts run from the residue outwards. [ ]: non-standard residue; d: D form. The star is where a group is joined. Dodecanoyl(12-OPh(4-COOH)) = O=C(O)c1ccc(OCCCCCCCCCCCC(=O)*)cc1; 9‑(3-carboxyphenoxy)nonanoyl = O=C(O)c1cccc(OCCCCCCCCC(=O)*)c1; Undecanoyl(11-OPh(4-COOH)) = O=C(O)c1ccc(OCCCCCCCCCCC(=O)*)cc1; Decanoyl(10-(4-HOOC-PhO)) = O=C(O)c1ccc(OCCCCCCCCCC(=O)*)cc1; Decanoyl(10-O(3-COOH-Ph)) = O=C(O)c1cccc(OCCCCCCCCCC(=O)*)c1; γGlu = O=C(O)[C@H](CCC(=O)[*:2])N[*:1]; C14 diacid = O=C(O)CCCCCCCCCCCCC(=O)*; AEEA = NCCOCCOCC(=O)O; Aib = CC(C)(N)C(=O)O

Legend:
human GLP-1 receptor [1] = molecular target: T1, human GLP-1 receptor (human, UniProt P43220)
Target sequence in this assay (P43220 24-463): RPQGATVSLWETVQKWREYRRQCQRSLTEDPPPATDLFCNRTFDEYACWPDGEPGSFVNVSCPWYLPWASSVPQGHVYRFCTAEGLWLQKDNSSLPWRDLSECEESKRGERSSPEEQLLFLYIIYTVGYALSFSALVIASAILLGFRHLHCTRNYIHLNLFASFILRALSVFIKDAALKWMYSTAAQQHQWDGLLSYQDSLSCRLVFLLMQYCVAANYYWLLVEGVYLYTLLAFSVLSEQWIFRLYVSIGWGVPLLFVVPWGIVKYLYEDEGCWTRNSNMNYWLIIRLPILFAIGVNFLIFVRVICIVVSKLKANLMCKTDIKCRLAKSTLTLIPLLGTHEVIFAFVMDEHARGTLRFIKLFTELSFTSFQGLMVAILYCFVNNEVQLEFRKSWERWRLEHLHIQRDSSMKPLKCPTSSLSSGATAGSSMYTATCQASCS

human GLP-1 receptor [2] = molecular target: T1, human GLP-1 receptor; test: displacement of [125I]-GLP-1-(7-36)NH2 from membranes with human GLP-1 receptor, SPA, high HSA (2.0%)
Method: Each derivative is added in a series of concentrations to isolated membranes containing the human GLP-1 receptor and displacement of the labelled ligand is monitored. The receptor binding is reported as the concentration at which half of the labelled ligand is displaced from the receptor, the $IC50$ value.
For the receptor binding assay in the presence of low HSA (0.001%) 50 μl of the assay buffer was added to each well of an assay plate. […] For the receptor binding assay in the presence of high HSA (2.0%) 50 μl of the 8% albumin stock was added to each well of an assay plate. […] Cell membrane aliquots were thawed and diluted to their working concentration. Fifty μl were added to each well in the assay plate. […] WGA SPA beads were suspended in assay buffer at 20 mg/ml. The suspension was diluted to 10 mg/ml in assay buffer just prior to addition to the assay plate. Fifty μl were added to each well in the assay plate. […] A 25 μl aliquot was reserved for measuring total counts/well. […] The assay plate was incubated for 2 h at 30° C. […] The assay plate was centrifuged for 10 min. […] The assay plate was read in a Packard TopCount NXT instrument.

B1: GLP-1 derivative of Example 23 (peptide)
peptide: H[Aib]EGTFTSDVSSYLEEQAAREFIAWLVRGK([AEEA-AEEA-γGlu-9‑(3-carboxyphenoxy)nonanoyl])K([AEEA-AEEA-γGlu-9‑(3-carboxyphenoxy)nonanoyl])
- EC50/pM (0% HSA) (human GLP-1 receptor [1]): 7.7 pM
- EC50/pM (1% HSA) (human GLP-1 receptor [1]): 15 pM
- IC50 (human GLP-1 receptor [2]): 193 nM

B2: GLP-1 derivative of Example 26 (peptide)
peptide: H[Aib]EGTFTSDVSSYLEEQAAREFIAWLVRGK([AEEA-AEEA-γGlu-Dodecanoyl(12-OPh(4-COOH))])K([AEEA-AEEA-γGlu-Dodecanoyl(12-OPh(4-COOH))])
- EC50/pM (0% HSA) (human GLP-1 receptor [1]): 1.5 pM
- EC50/pM (1% HSA) (human GLP-1 receptor [1]): 124 pM
- IC50 (human GLP-1 receptor [2]): 360 nM

B3: GLP-1 derivative of Example 28 (peptide)
peptide: H[Aib]EGTFTSDVSSYLEEQAAREFIEWLVRGK([AEEA-AEEA-AEEA-AEEA-γGlu-Decanoyl(10-O(3-COOH-Ph))])K([AEEA-AEEA-AEEA-AEEA-γGlu-Decanoyl(10-O(3-COOH-Ph))])
- EC50/pM (0% HSA) (human GLP-1 receptor [1]): 12 pM
- EC50/pM (1% HSA) (human GLP-1 receptor [1]): 25 pM
- IC50 (human GLP-1 receptor [2]): 173 nM

B4: GLP-1 derivative of Example 3 (peptide)
peptide: H[Aib]EGTFTSDVSSYLEEQAAREFIAWLVRGK([AEEA-AEEA-γGlu-Decanoyl(10-(4-HOOC-PhO))])K([AEEA-AEEA-γGlu-Decanoyl(10-(4-HOOC-PhO))])
- EC50/pM (0% HSA) (human GLP-1 receptor [1]): 1.2 pM
- EC50/pM (1% HSA) (human GLP-1 receptor [1]): 28 pM
- IC50 (human GLP-1 receptor [2]): 77 nM

B5: GLP-1 derivative of Example 5 (peptide)
peptide: H[Aib]EGTFTSDVSSYLEEQAAREFIAWLVRGK([AEEA-AEEA-γGlu-C14 diacid])K([AEEA-AEEA-γGlu-C14 diacid])
- EC50/pM (0% HSA) (human GLP-1 receptor [1]): 1.1 pM
- EC50/pM (1% HSA) (human GLP-1 receptor [1]): 22 pM
- IC50 (human GLP-1 receptor [2]): 144 nM

B6: GLP-1 derivative of Example 7 (peptide)
peptide: H[Aib]EGTFTSDVSSYLEEQAAREFIAWLVQGK([AEEA-AEEA-γGlu-Undecanoyl(11-OPh(4-COOH))])K([AEEA-AEEA-γGlu-Undecanoyl(11-OPh(4-COOH))])
- EC50/pM (0% HSA) (human GLP-1 receptor [1]): 1.5 pM
- EC50/pM (1% HSA) (human GLP-1 receptor [1]): 143 pM
- IC50 (human GLP-1 receptor [2]): 233 nM

B7: GLP-1 derivative of Example 12 (peptide)
peptide: H[Aib]EGTFTSDVSSYLEEQAAREFIAWLVRGK([AEEA-AEEA-AEEA-γGlu-C14 diacid])K([AEEA-AEEA-AEEA-γGlu-C14 diacid])
- EC50/pM (0% HSA) (human GLP-1 receptor [1]): 1.2 pM
- EC50/pM (1% HSA) (human GLP-1 receptor [1]): 10 pM
- IC50 (human GLP-1 receptor [2]): 70 nM

B8: GLP-1 derivative of Example 13 (peptide)
peptide: H[Aib]EGTFTSDVSSYLEEQAAREFIAWLVRGK([AEEA-γGlu-γGlu-C14 diacid])K([AEEA-γGlu-γGlu-C14 diacid])
- EC50/pM (0% HSA) (human GLP-1 receptor [1]): 1.3 pM
- EC50/pM (1% HSA) (human GLP-1 receptor [1]): 18 pM
- IC50 (human GLP-1 receptor [2]): 201 nM
